PMC8092228 (mBio, 2021)

Target: LOV-PAS-HK construct of Brucella abortus LOV-HK (residues 15 to 489), called the full-length protein (Brucella abortus)
Assay: SEC with static light scattering (SEC-SLS)

Sequence of LOV-PAS-HK construct of Brucella abortus LOV-HK (residues 15 to 489), called the full-length protein (enzyme) (A9MBM8 15-489 limits assumed): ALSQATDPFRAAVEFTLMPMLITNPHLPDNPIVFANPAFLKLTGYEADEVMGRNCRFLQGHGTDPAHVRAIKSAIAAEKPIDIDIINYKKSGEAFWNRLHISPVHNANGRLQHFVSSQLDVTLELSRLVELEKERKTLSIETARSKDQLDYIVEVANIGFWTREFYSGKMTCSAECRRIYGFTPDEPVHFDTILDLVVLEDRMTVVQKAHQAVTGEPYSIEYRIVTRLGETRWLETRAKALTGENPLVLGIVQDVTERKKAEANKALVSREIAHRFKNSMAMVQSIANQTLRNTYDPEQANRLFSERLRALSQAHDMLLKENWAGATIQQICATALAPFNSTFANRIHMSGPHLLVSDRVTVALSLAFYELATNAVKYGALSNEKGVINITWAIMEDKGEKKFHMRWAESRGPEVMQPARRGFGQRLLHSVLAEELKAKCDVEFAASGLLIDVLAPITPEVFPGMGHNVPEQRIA

Substance: LOV-PAS-HK construct of Brucella abortus LOV-HK (residues 15 to 489), called the full-length protein (enzyme)
- stoichiometry N: 2
